{
  "source": "patent US5550213A",
  "about": "“Inhibitors of urokinase plasminogen activator” (Rutgers, The State University of New Jersey, priority 1993, dated 1996)",
  "origin": "cited, not measured here",
  "molecules": {"B1": {"name": "PAI-2: placental type PA-inhibitor, a serpin, native inhibitor of urokinase (protein, UniProt P05120 1-415, looked up)", "Plasminogen activator …": "MEDLCVANTLFALNLFKHLAKASPTQNLFLSPWSISSTMAMVYMGSRGSTEDQMAKVLQFNEVGANAVTPMTPENFTSCGFMQQIQKGSYPDAILQAQAADKIHSSFRSLSSAINASTGNYLLESVNKLFGEKSASFREEYIRLCQKYYSSEPQAVDFLECAEEARKKINSWVKTQTKGKIPNLLPEGSVDGDTRMVLVNAVYFKGKWKTPFEKKLNGLYPFRVNSAQRTPVQMMYLREKLNIGYIEDLKAQILELPYAGDVSMFLLLPDEIADVSTGLELLESEITYDKLNKWTSKDKMAEDEVEVYIPQFKLEEHYELRSILRSMGMEDAFNKGRANFSGMSERNDLFLSEVFHQAMVDVNEEGTEAAAGTGGVMTGRTGHGGPQFVADHPFLFLIMHKITNCILFFGRFSSP"}},
  "biological_target": "urokinase (UK) (Homo sapiens, UniProt P00749)",
  "details": "from Turpeinen et al. (PSTI), Christensen et al. (PAI-2); serpin Ki not functionally comparable to reversible inhibitors; read-out: Ki (nM) against UK, values obtained from the literature",
  "data": [
    {"molecule": "B1", "values": [
      {"measurement": "Ki", "value": "< 0.01", "unit": "nM"}
    ]}
  ]
}
